Test results reported in the supplement of paper PMC12764529.
± gives the half width of the 95% confidence interval.

Columns and labels:
[1] = folding stability dG unfold from chymotrypsin proteolysis; higher = more stable
Procedure, shortened: (§1)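 K50 was inferred by Bayesian fitting of sequencing counts obtained after protease digestion of designed mini-proteins. Unfolding free energy was derived by comparison with a sequence-predicted unfolded-state K50 and a shared folded-state K50, for each protease or both combined. The mini-proteins were under 80 residues, had no cysteine, were carried in a PA-tagged cDNA display construct, and were kept only if AlphaFold2 dimer inter-PAE exceeded 15.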

[2] = folding stability dG unfold from trypsin proteolysis; higher = more stable
Procedure, shortened: as §1

[3] = folding stability dG unfold (combined trypsin and chymotrypsin); higher = more stable
Procedure, shortened: as §1

Sequence	folding stability dG unfold [1] [kcal/mol]	folding stability dG unfold [2] [kcal/mol]	folding stability dG unfold [3] [kcal/mol]
SAGPEKVREAARELFEKLNLPIVSEEAIEVGDAVLIRFEIPEIGTKITILAPVFENGEIKVIVKIEPVSSAG [r5_888_TrMRF]	1.58 ± 0.032	1.71 ± 0.069	1.65 ± 0.091
SAGPIIIRVKYPDGRQIDINPENPWQIQIWDPGGKKETYPFDSNEDAKDKVVDWLGEEHGWPIKDVEIVSAG [r5_119_TrROS]	0.35 ± 0.059	0.373 ± 0.043	0.403 ± 0.11
SAGPKIRTIIKEILKELNPDRPIEIHTHPDGFIIIVNPDDGRFIMIKIDPDGDIKISEVVPAEEMKKMMSAG [r5_852_TrROS]	1.17 ± 0.058	1.84 ± 0.033	1.49 ± 0.13
SAGPKKKVEIDVHIMIPFKSWEDRELMLYYARKFAPYIARELAKQNGLPPGVDEVKVDVNIMIIPPGQMSAG [r5_436_TrROS]	3.87 ± 0.04	2.84 ± 0.12	3.34 ± 0.12
SAGPKTLLLNIPPGEDVELLIGDKPYRIKVDPERLIGYAFDPETGEIFLIFHDPEKPIALITVFPSPPLSAG [r5_302_TrMRF]	2.46 ± 0.11	1.56 ± 0.042	2.18 ± 0.12
SAGPPEQKIKIKWYPPDDGQPQEIPGPVDDIKDILDKLGWPVTNIETDPDDNEVEIWVPFPNWWLHIKISAG [r5_521_TrROS]	1.79 ± 0.069	0.884 ± 0.036	1.53 ± 0.12
SAGPPGMRMVPFTIELPGKKIEIHVMEYPNGPPQYMVEIEDPNGKPKWTIMVTGPEARDLLEKAGIKFSAGG [r19_90_TrROS]	1.23 ± 0.14	0.438 ± 0.1	1.01 ± 0.1
SAGPPGQPVKTIEIMIEFPPGQTMEEARERVEEIADEIQRKFPKIKSIDVDVQKDDDTYYVNANITIPYSAG [r5_446_TrROS]	0.372 ± 0.19	0.848 ± 0.048	0.688 ± 0.19
SAGPPKTRTVMFPPEDIPKILEELKKLPPDITIHFPDPDPGNWFMIEVTDDEIKIENPGNGEERTIPISAGG [r19_154_TrROS]	0.252 ± 0.11	-0.712 ± 0.24	0.0412 ± 0.16
SAGPPPWMVIRIPFWVKVTPDDGIITIEFKIEIGNKEFKIKITIPIPPELADAPPGETIPIPIWIFIRPSAG [r5_714_TrROS]	5.13 ± 0.062	3.99 ± 0.16	4.81 ± 0.13
SAGPSLEVEVERLPGPYVRITARYSRDVPVEVLVEELRAAAPVEVRVEEDPERDFVTVVAVLPLAPDAGSAG [r5_742_TrMRF]	1.46 ± 0.069	1.28 ± 0.031	1.46 ± 0.08
SAGPTIMIPMPPKESLEEAVEKAIEWIREFFPDNLKPGKKIKIFVHVWDPDNGKQYWVTIEIPIPKGELSAG [r5_916_TrROS]	3.62 ± 0.057	2.48 ± 0.22	3.19 ± 0.25
SAGPVLYRVTITVEVSSSGEKGKTLTLEFLVPPSVSGEEVRDRVLALLKAQGYKVEKITVTVTPLPSSASAG [r14_979_JUSTAS]	5.36 ± 0.13	4.03 ± 0.21	5.27 ± 0.14
SAGPVVLSPDDTVKIGKKELTFFSDGTVSVKYPDGTGESITVTVDPSSGNITLTETFTEPETGTTPVENSAG [r5_33_JUSTAS]	1.48 ± 0.075	0.473 ± 0.15	1.17 ± 0.16
SAGPVVTLTVTVEIEVDGVRVEVTVTATLLPDGTVVITATVKVTLPNGETKTVTVTLTFPPGVDEVVLTSAG [r5_829_TrROS_Hall]	3.42 ± 0.18	2.62 ± 0.15	3.06 ± 0.25
SAGPWITIPFKVKSLEEARNIIREIAQTFGLPMKVEDIQVTEDQLEKNREPGDPIRITVRYPNGREIEISAG [r5_503_TrROS]	1.69 ± 0.11	1.64 ± 0.065	1.64 ± 0.11
SAGQPGKPIRKYTFDLPDDDKITVEVYMYPDGNMMIKIEDNNGKERNIMIPANDLQNMPIEDLVKWLRSAGG [r19_47_TrROS]	3.57 ± 0.062	2.73 ± 0.12	3.33 ± 0.36
SAGSAEELKEKIREELRERLAKELGYPNIEIKKVEVLKYDPETGTITVKVELKLPDGKELTLTITVPVKSAG [r5_20_JUSTAS]	3.63 ± 0.29	4.27 ± 0.34	3.9 ± 0.41
SAGSASSIKPISSTLDVRTDPETGKPVKATVYTYVLPSDGSSKQVPVPLSKKEPINLSPSDSYVTETRESAG [r5_950_JUSTAS]	-0.274 ± 0.27	-0.586 ± 0.17	-0.361 ± 0.22
SAGSGPGETKLVEEVEIDPVGPIKDSNGNPRPIKVVTKKLVEVTILEDGTVEKKVLETVVETLPPDVPLSAG [r5_132_JUSTAS]	-0.575 ± 0.1	-0.498 ± 0.23	-0.662 ± 0.51
SAGSGVILRTPEGKYVPLSALSEEEIKTAIEDPLSPAPPVTVEVTVTSVRLPVPRTVTTTEVVVTVLGSAGG [r19_232_JUSTAS]	0.233 ± 0.19	-0.00526 ± 0.21	0.115 ± 0.19
SAGSIEAAVEALEKELREKGYKVSVELVETDPSDPNRLNLVIRVTVEGFSPESKPLGKKEETYVIEGGSAGG [r19_418_JUSTAS]	1.45 ± 0.069	1.12 ± 0.031	1.28 ± 0.14
SAGSIPELIREAFPSKVDRVEVTTEKLPNGTTKTTIKVYVDDPEVAERLAKEINELSGEPLENLTVTEESAG [r5_542_JUSTAS]	0.981 ± 0.039	0.0676 ± 0.11	0.652 ± 0.13
SAGSITIPIDDPEEMKDQLKNIAENFGMSNQDAEQFKDQLKENIEIHRDGDRWYITIQPPPPPDPGQPPSAG [r5_717_TrROS]	-0.145 ± 0.55	0.51 ± 0.15	-0.121 ± 0.47
SAGSITITIETLPDGTIRITIPYTSEEEAKKVAEEVAKEIAEKLGEEVIKFEVTPEDDDTLILTIPIKKSAG [r5_772_JUSTAS]	1.81 ± 0.092	1.15 ± 0.15	1.78 ± 0.28
SAGSITTTDGNISRSVTYIPGLNLYLVTSTYPTSVSVDLVTEEGGTLTTTPVSTTPLPLPASSLSTTASAGG [r19_328_JUSTAS]	-0.16 ± 0.15	0.207 ± 0.059	0.0781 ± 0.091
SAGSKEEKAKEIAKKLAEELKKKFPDLKIVEVKVVKIEYNKENKEIKITIYVYNKNGKLIKKIEITLPSAGG [r19_53_TrROS_Hall]	4.63 ± 0.11	3.58 ± 0.2	4.38 ± 0.18
